# Source: patent US20180362668
# Where a chain is given by its changes, count along the chain named. In names and notes the source's numbering stands.
# B1: ScFv-Fc fusion protein chain A with Y349C + T366W + K409A (protein)
# chain: EVQLLESGGGVVQPGRSLRLSCIASGFTFSSYPMTWVRQAPGKGLEWVASISYDGSYKYKADSMKGRLTISRDNSKNTLYLEMNSLTAEDTAVYYCARTAFFNAYDFWGQGTLVTVSSASTKGPSVGGGGSGGGGSEIVMTQSPATLSVSPGERATLSCRASQSVRSNLAWYQQKPGQAPRLLIYAASTRATGIPARFSGSGSGTEFTLTISSLQSEDFAVYYCQQYNEWFRTSGQGTKVEIKRDKTHTCPPCPAPELLGGPSVFLFPPKPKDTLMISRTPEVTCVVVDVSHENPEVKFNWYVDGVEVHNAKTKPREEQYNSTYRVVSVLTVLHQDWLNGKEYKCKVSNKALPAPIEKTISKAKGQPREPQVCTLPPSRDELTKNQVSLWCLVKGFYPSDIAVEWESNGQPENNYKTTPPVLDSDGSFFLYSALTVDKSRWQQGNVFSCSVMHEALHNHYTQKSLSLSPGK
# B2: ScFv-Fc fusion protein chain A with T366W + K409A (protein)
# chain: B1 chain with C373Y
# B3: ScFv-Fc fusion protein chain A with T366W + K409A + K392D (protein)
# chain: B1 chain with C373Y, K416D
# Tests used:
# [1] = molecular target: Fc protein chain B with D356C + T366S + L368A + Y407V + F405K; experiment: non-reducing SDS-PAGE of Protein A-purified co-transfection product; chain A:chain B vectors 1:4
# [2] = molecular target: Fc protein chain B with D356C + T366S + L368A + Y407V + F405K; experiment: non-reducing SDS-PAGE of Protein A-purified co-transfection product; chain A:chain B vectors 4:1
# [3] = molecular target: T1, VhH-Fc fusion protein chain B with D356C + T366S + L368A + Y407V + F405K; experiment: non-reducing SDS-PAGE densitometry of Protein A-purified co-transfection product; chain A:chain B vectors 1:4
# [4] = molecular target: T1, VhH-Fc fusion protein chain B with …; experiment: non-reducing SDS-PAGE densitometry of Protein A-purified co-transfection product; chain A:chain B vectors 4:1
# [5] = molecular target: T2, VhH-Fc fusion protein chain B with T366S + L368G + Y407A + F405K; experiment: non-reducing SDS-PAGE densitometry of Protein A-purified co-transfection product; chain A:chain B vectors 1:4
# [6] = molecular target: T2, VhH-Fc fusion protein chain B with …; experiment: non-reducing SDS-PAGE densitometry of Protein A-purified co-transfection product; chain A:chain B vectors 4:1
# [7] = molecular target: T3, VhH-Fc fusion protein chain B with T366S + L368A + Y407V + D399S + F405K; experiment: non-reducing SDS-PAGE densitometry of Protein A-purified co-transfection product; chain A:chain B vectors 1:1
# [8] = molecular target: T3, VhH-Fc fusion protein chain B with …; experiment: non-reducing SDS-PAGE densitometry of Protein A-purified co-transfection product; chain A:chain B vectors 1:4
# [9] = molecular target: T3, VhH-Fc fusion protein chain B with …; experiment: non-reducing SDS-PAGE densitometry of Protein A-purified co-transfection product; chain A:chain B vectors 4:1
protein,measurement,setting,value
B1,ScFv-Fc/Fc heterodimer (%),[1],66%
same,ScFv-Fc/Fc heterodimer (%),[2],53%
same,ScFv-Fc/VhH-Fc heterodimer (%),[3],47%
same,ScFv-Fc/VhH-Fc heterodimer (%),[4],54%
B2,ScFv-Fc/VhH-Fc heterodimer (%),[5],89%
same,ScFv-Fc/VhH-Fc heterodimer (%),[6],52%
B3,ScFv-Fc/VhH-Fc heterodimer (%),[7],80%
same,ScFv-Fc/VhH-Fc heterodimer (%),[8],73%
same,ScFv-Fc/VhH-Fc heterodimer (%),[9],61%
